Measured values taken from IntAct's records for PubMed 19817875.

B1: Actin nucleation-promoting factor WAS (Homo sapiens), P42768 (parent)
chain: MSGGPMGGRPGGRGAPAVQQNIPSTLLQDHENQRLFEMLGRKCLTLATAVVQLYLALPPGAEHWTKEHCGAVCFVKDNPQKSYFIRLYGLQAGRLLWEQELYSQLVYSTPTPFFHTFAGDDCQAGLNFADEDEAQAFRALVQEKIQKRNQRQSGDRRQLPPPPTPANEERRGGLPPLPLHPGGDQGGPPVGPLSLGLATVDIQNPDITSSRYRGLPAPGPSPADKKRSGKKKISKADIGAPSGFKHVSHVGWDPQNGFDVNNLDPDLRSLFSRAGISEAQLTDAETSKLIYDFIEDQGGLEAVRQEMRRQEPLPPPPPPSRGGNQLPRPPIVGGNKGRSGPLPPVPLGIAPPPPTPRGPPPPGRGGPPPPPPPATGRSGPLPPPPPGAGGPPMPPPPPPPPPPPSSGNGPAPPPLPPALVPAGGLAPGGGRGALLDQIRQGIQLNKTPGAPESSALQPPPQSSEGLVGALMHVMQKRSRAIHSSDEGEDQAGDEDEDDEWDD

Legend:
Conditions in all cases: with wipf1_human WIPF1, O43516
Chain of wipf1_human WIPF1, O43516 (O43516 whole entry): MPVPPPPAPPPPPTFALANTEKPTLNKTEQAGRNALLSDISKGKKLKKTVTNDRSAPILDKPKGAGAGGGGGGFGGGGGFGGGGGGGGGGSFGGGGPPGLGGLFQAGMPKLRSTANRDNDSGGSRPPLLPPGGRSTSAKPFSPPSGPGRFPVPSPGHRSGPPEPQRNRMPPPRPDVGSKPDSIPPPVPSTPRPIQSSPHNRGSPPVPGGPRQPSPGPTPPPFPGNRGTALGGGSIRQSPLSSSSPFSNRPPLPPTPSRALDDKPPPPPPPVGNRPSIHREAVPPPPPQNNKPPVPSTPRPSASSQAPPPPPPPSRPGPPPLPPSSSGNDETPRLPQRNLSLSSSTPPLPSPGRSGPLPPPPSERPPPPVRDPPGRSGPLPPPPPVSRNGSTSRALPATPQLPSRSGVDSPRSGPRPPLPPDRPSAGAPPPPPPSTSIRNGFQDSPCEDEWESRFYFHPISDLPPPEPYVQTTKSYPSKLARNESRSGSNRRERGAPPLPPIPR

[1] = variants of: B1
[2] = variants of: B1; remark: listed apart in the source
[3] = variants of: B1; remark: listed apart in the source

| Variant | effect of a mutation on the interaction [1] | effect of a mutation on the interaction [2] | effect of a mutation on the interaction [3] |
| --- | --- | --- | --- |
| MSGGPMGGRPGGRGAPAVQQNIPSTLLQDHENQRLFEMLGRKCLTLATAVVQLYLALPPGAEHWTKEHCGAVYFVKDNPQKSYFIRLYGLQAGRLLWEQELYSQLVYSTPTPFFHTFAGDDCQAGLNFADEDEAQAFRALVQEKIQKRNQRQSGDRRQLPPPPTPANEERRGGLPPLPLHPGGDQGGPPVGPLSLGLATVDIQNPDITSSRYRGLPAPGPSPADKKRSGKKKISKADIGAPSGFKHVSHVGWDPQNGFDVNNLDPDLRSLFSRAGISEAQLTDAETSKLIYDFIEDQGGLEAVRQEMRRQEPLPPPPPPSRGGNQLPRPPIVGGNKGRSGPLPPVPLGIAPPPPTPRGPPPPGRGGPPPPPPPATGRSGPLPPPPPGAGGPPMPPPPPPPPPPPSSGNGPAPPPLPPALVPAGGLAPGGGRGALLDQIRQGIQLNKTPGAPESSALQPPPQSSEGLVGALMHVMQKRSRAIHSSDEGEDQAGDEDEDDEWDD [C73Y] | disrupting interaction strength | decreasing interaction strength |  |
| MSGGPMGGRPGGRGAPAVQQNIPSTLLQDHENQRHFEMLGRKCLTLATAVVQLYLALPPGAEHWTKEHCGAVCFVKDNPQKSYFIRLYGLQAGRLLWEQELYSQLVYSTPTPFFHTFAGDDCQAGLNFADEDEAQAFRALVQEKIQKRNQRQSGDRRQLPPPPTPANEERRGGLPPLPLHPGGDQGGPPVGPLSLGLATVDIQNPDITSSRYRGLPAPGPSPADKKRSGKKKISKADIGAPSGFKHVSHVGWDPQNGFDVNNLDPDLRSLFSRAGISEAQLTDAETSKLIYDFIEDQGGLEAVRQEMRRQEPLPPPPPPSRGGNQLPRPPIVGGNKGRSGPLPPVPLGIAPPPPTPRGPPPPGRGGPPPPPPPATGRSGPLPPPPPGAGGPPMPPPPPPPPPPPSSGNGPAPPPLPPALVPAGGLAPGGGRGALLDQIRQGIQLNKTPGAPESSALQPPPQSSEGLVGALMHVMQKRSRAIHSSDEGEDQAGDEDEDDEWDD [L35H] | with no effect | decreasing interaction strength | disrupting interaction strength |
| MSGGPMGGRPGGRGAPAVQQNIPSTLLQDHENQRLFEMLGRKCLTPATAVVQLYLALPPGAEHWTKEHCGAVCFVKDNPQKSYFIRLYGLQAGRLLWEQELYSQLVYSTPTPFFHTFAGDDCQAGLNFADEDEAQAFRALVQEKIQKRNQRQSGDRRQLPPPPTPANEERRGGLPPLPLHPGGDQGGPPVGPLSLGLATVDIQNPDITSSRYRGLPAPGPSPADKKRSGKKKISKADIGAPSGFKHVSHVGWDPQNGFDVNNLDPDLRSLFSRAGISEAQLTDAETSKLIYDFIEDQGGLEAVRQEMRRQEPLPPPPPPSRGGNQLPRPPIVGGNKGRSGPLPPVPLGIAPPPPTPRGPPPPGRGGPPPPPPPATGRSGPLPPPPPGAGGPPMPPPPPPPPPPPSSGNGPAPPPLPPALVPAGGLAPGGGRGALLDQIRQGIQLNKTPGAPESSALQPPPQSSEGLVGALMHVMQKRSRAIHSSDEGEDQAGDEDEDDEWDD [L46P] | disrupting interaction strength | decreasing interaction strength |  |
| MSGGPMGGRPGGRGAPAVQQNIPSTLLQDHKNQRLFEMLGRKCLTLATAVVQLYLALPPGAEHWTKEHCGAVCFVKDNPQKSYFIRLYGLQAGRLLWEQELYSQLVYSTPTPFFHTFAGDDCQAGLNFADEDEAQAFRALVQEKIQKRNQRQSGDRRQLPPPPTPANEERRGGLPPLPLHPGGDQGGPPVGPLSLGLATVDIQNPDITSSRYRGLPAPGPSPADKKRSGKKKISKADIGAPSGFKHVSHVGWDPQNGFDVNNLDPDLRSLFSRAGISEAQLTDAETSKLIYDFIEDQGGLEAVRQEMRRQEPLPPPPPPSRGGNQLPRPPIVGGNKGRSGPLPPVPLGIAPPPPTPRGPPPPGRGGPPPPPPPATGRSGPLPPPPPGAGGPPMPPPPPPPPPPPSSGNGPAPPPLPPALVPAGGLAPGGGRGALLDQIRQGIQLNKTPGAPESSALQPPPQSSEGLVGALMHVMQKRSRAIHSSDEGEDQAGDEDEDDEWDD [E31K] | with no effect |  | disrupting interaction strength |

The next lines start with the values.

| effect of a mutation on the interaction [1] | effect of a mutation on the interaction [2] | effect of a mutation on the interaction [3] | Variant |
| --- | --- | --- | --- |
| with no effect | decreasing interaction strength | disrupting interaction strength | MSGGPMGGRPGGRGAPAVQQNIPSTLLQDHENQRLFEMLGRKCLTLATAVVQLYLALPPGAEHWTKEHCGAVCFVKDNPQKSYFTRLYGLQAGRLLWEQELYSQLVYSTPTPFFHTFAGDDCQAGLNFADEDEAQAFRALVQEKIQKRNQRQSGDRRQLPPPPTPANEERRGGLPPLPLHPGGDQGGPPVGPLSLGLATVDIQNPDITSSRYRGLPAPGPSPADKKRSGKKKISKADIGAPSGFKHVSHVGWDPQNGFDVNNLDPDLRSLFSRAGISEAQLTDAETSKLIYDFIEDQGGLEAVRQEMRRQEPLPPPPPPSRGGNQLPRPPIVGGNKGRSGPLPPVPLGIAPPPPTPRGPPPPGRGGPPPPPPPATGRSGPLPPPPPGAGGPPMPPPPPPPPPPPSSGNGPAPPPLPPALVPAGGLAPGGGRGALLDQIRQGIQLNKTPGAPESSALQPPPQSSEGLVGALMHVMQKRSRAIHSSDEGEDQAGDEDEDDEWDD [I85T] |
| disrupting interaction strength | decreasing interaction strength |  | MSGGPMGGRPGGRGAPAVQQNIPSTLLQDHENQRLFEMLGRKCLTLATAVVQLYLALPPGAEHWTKEHCGAVCFVKDNPQKSYFIRLYGLQAGRLLWEQELYSQLVYSTPTPFFHTFAGDDCQAGLNFADEDETQAFRALVQEKIQKRNQRQSGDRRQLPPPPTPANEERRGGLPPLPLHPGGDQGGPPVGPLSLGLATVDIQNPDITSSRYRGLPAPGPSPADKKRSGKKKISKADIGAPSGFKHVSHVGWDPQNGFDVNNLDPDLRSLFSRAGISEAQLTDAETSKLIYDFIEDQGGLEAVRQEMRRQEPLPPPPPPSRGGNQLPRPPIVGGNKGRSGPLPPVPLGIAPPPPTPRGPPPPGRGGPPPPPPPATGRSGPLPPPPPGAGGPPMPPPPPPPPPPPSSGNGPAPPPLPPALVPAGGLAPGGGRGALLDQIRQGIQLNKTPGAPESSALQPPPQSSEGLVGALMHVMQKRSRAIHSSDEGEDQAGDEDEDDEWDD [A134T] |
